Substitutions are numbered along the chain they refer to.
T1: human FPN1 C-terminally fused with GFP (human, UniProt Q9NP59 1-571, GFP reporter fused to the C-terminus ("FPN1 is C-terminally fused with GFP"). It is left out because the patent gives no letters for it.)
T1 sequence: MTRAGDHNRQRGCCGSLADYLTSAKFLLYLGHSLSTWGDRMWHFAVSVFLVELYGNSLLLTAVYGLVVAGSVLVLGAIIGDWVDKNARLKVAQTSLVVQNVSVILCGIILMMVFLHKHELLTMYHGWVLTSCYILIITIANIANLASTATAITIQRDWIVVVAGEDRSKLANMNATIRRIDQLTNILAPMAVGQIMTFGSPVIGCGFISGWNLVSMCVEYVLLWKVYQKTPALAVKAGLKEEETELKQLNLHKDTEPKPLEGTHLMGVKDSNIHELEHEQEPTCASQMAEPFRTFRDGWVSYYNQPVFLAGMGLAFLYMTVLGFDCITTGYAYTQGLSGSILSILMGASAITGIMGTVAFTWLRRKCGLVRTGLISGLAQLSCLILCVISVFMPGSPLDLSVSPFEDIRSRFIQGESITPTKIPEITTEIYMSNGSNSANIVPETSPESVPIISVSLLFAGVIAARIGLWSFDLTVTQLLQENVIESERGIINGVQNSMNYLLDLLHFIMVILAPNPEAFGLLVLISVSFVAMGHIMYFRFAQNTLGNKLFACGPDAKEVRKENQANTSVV

T2: human ferroportin 1 (human, UniProt Q9NP59 1-571)
T2 sequence: T1 sequence

T3: rat ferroportin (rat, UniProt Q923U9 1-570, limits assumed)
T3 sequence (looked up): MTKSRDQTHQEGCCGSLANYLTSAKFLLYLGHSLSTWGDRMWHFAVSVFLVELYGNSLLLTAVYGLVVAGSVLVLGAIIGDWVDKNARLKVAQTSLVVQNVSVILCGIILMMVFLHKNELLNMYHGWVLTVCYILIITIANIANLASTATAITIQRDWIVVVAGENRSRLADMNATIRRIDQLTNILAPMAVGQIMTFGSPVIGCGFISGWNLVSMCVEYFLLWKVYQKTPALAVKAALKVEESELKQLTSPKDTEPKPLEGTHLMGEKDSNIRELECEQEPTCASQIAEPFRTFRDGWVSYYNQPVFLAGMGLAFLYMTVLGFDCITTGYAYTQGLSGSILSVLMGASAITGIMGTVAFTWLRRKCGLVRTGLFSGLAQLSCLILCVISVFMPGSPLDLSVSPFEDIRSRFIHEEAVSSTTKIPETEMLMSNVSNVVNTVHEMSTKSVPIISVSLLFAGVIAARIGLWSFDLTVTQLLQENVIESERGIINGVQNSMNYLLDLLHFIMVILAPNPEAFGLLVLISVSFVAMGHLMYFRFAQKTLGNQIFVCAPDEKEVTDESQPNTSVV

B1: Mab 4A10-3 (antibody, human IgG4 S228P, kappa, F234A L235A, V domains shown)
VH: QVQLVQSGAEVKKPGSSVKVSCKASGYAFTSFLIEWVRQAPGQGLEWMGTSNPRTGGRKYKEKFRGRVTITADKSTSTAYMELSSLRSEDTAVYYCAREFFDYWGQGTTVTVSS
VL: DIQMTQSPSSLSASVGDRVTITCRASKSISKYTAWYQQKPGKAPKLLIYAGSKLHWGVPSRFSGSGSGTDFTLTISSLQPEDFATYYCQQHNEYPYTFGGGTKVEIKR
B2: Mab Combi11 (antibody, human IgG4 S228P, kappa, F234A L235A, V domains shown)
VH: B1 VH with G57R, R58T, E62S
VL: B1 VL with L54R

Tests used:
[1] = target: T1, human FPN1 C-terminally fused with GFP; test: inhibition of binding of 30 nM biotinylated hepcidin to FPN-GFP/293 cells, ELISA of lysate; control antibody at 6.0 uM; mean
[2] = target: T1, human FPN1 C-terminally fused with GFP; test: inhibition of binding of 30 nM biotinylated hepcidin to FPN-GFP/293 cells, ELISA of lysate; control antibody at 0.24 uM; mean
[3] = target: T1, human FPN1 C-terminally fused with GFP; test: inhibition of binding of 30 nM biotinylated hepcidin to FPN-GFP/293 cells, ELISA of lysate; control antibody at 0.048 uM; mean
human ferroportin 1 [4] = target: T2, human ferroportin 1; test: cell-based or functional assay
[5] = target: T1, human FPN1 C-terminally fused with GFP; test: inhibition of binding of 30 nM biotinylated hepcidin to FPN-GFP/293 cells, ELISA of lysate; control antibody at 1.2 uM; mean
human ferroportin 1 [6] = target: T2, human ferroportin 1; test: inhibition of binding of 30 nM biotinylated hepcidin to FPN/293 cells, ELISA of lysate; control antibody at 31.25 nM; mean
human ferroportin 1 [7] = target: T2, human ferroportin 1; test: inhibition of binding of 30 nM biotinylated hepcidin to FPN/293 cells, ELISA of lysate; control antibody at 2000 nM; mean
human ferroportin 1 [8] = target: T2, human ferroportin 1; test: inhibition of binding of 30 nM biotinylated hepcidin to FPN/293 cells, ELISA of lysate; control antibody at 500 nM; mean
human ferroportin 1 [9] = target: T2, human ferroportin 1; test: inhibition of binding of 30 nM biotinylated hepcidin to FPN/293 cells, ELISA of lysate; control antibody at 125 nM; mean
human ferroportin 1 [10] = target: T2, human ferroportin 1; test: inhibition of binding of 30 nM biotinylated hepcidin to FPN/293 cells, ELISA of lysate; control antibody at 7.8 nM; mean
human ferroportin 1 [11] = target: T2, human ferroportin 1; test: inhibition of binding of 30 nM biotinylated hepcidin to FPN/293 cells, ELISA of lysate; antibody at 31.25 nM; mean
[12] = target: T1, human FPN1 C-terminally fused with GFP; test: cell-based or functional assay
rat ferroportin = target: T3, rat ferroportin; test: not described; told in the pharmacokinetics example
human ferroportin 1 [13] = target: T2, human ferroportin 1; test: inhibition of binding of 30 nM biotinylated hepcidin to FPN/293 cells, ELISA of lysate; antibody at 125 nM; mean
human ferroportin 1 [14] = target: T2, human ferroportin 1; test: inhibition of binding of 30 nM biotinylated hepcidin to FPN/293 cells, ELISA of lysate; antibody at 500 nM; mean
human ferroportin 1 [15] = target: T2, human ferroportin 1; test: inhibition of binding of 30 nM biotinylated hepcidin to FPN/293 cells, ELISA of lysate; antibody at 7.8 nM; mean
human ferroportin 1 [16] = target: T2, human ferroportin 1; test: inhibition of binding of 30 nM biotinylated hepcidin to FPN/293 cells, ELISA of lysate; antibody at 2000 nM; mean

Molecule	% Inhibition (human ferroportin 1 [11]) [%]	Absolute IC50 of inhibition of hepcidin-25-induced internalization and degradation of FPN1-GFP [12] [nM]	Relative IC50 of inhibition of hepcidin-25-induced internalization and degradation of FPN1-GFP [12] [nM]	Top % Inhibition of hepcidin-25-induced internalization and degradation of FPN1-GFP [12] [%]	binding result (rat ferroportin)	% Inhibition (human ferroportin 1 [13]) [%]	% Inhibition (human ferroportin 1 [14]) [%]	% Inhibition (human ferroportin 1 [15]) [%]	EC50 of inhibition of mature hepcidin induced increase in cellular ferritin, Caco-2 cells (human ferroportin 1 [4]) [nM]	Percentage inhibition of mature hepcidin induced increase in cellular ferritin, Caco-2 cells, Mab at 2.22E-7 M (human ferroportin 1 [4]) [%]	Percentage inhibition of mature hepcidin induced increase in cellular ferritin, Caco-2 cells, Mab at 2.47E-8 M (human ferroportin 1 [4]) [%]	Percentage inhibition of mature hepcidin induced increase in cellular ferritin, Caco-2 cells, Mab at 2.7E-9 M (human ferroportin 1 [4]) [%]	Percentage inhibition of mature hepcidin induced increase in cellular ferritin, Caco-2 cells, Mab at 3.0E-10 M (human ferroportin 1 [4]) [%]	Percentage inhibition of mature hepcidin induced increase in cellular ferritin, Caco-2 cells, Mab at 6.67E-7 M (human ferroportin 1 [4]) [%]	Percentage inhibition of mature hepcidin induced increase in cellular ferritin, Caco-2 cells, Mab at 7.4E-8 M (human ferroportin 1 [4]) [%]	Percentage inhibition of mature hepcidin induced increase in cellular ferritin, Caco-2 cells, Mab at 8.0E-9 M (human ferroportin 1 [4]) [%]	Percentage inhibition of mature hepcidin induced increase in cellular ferritin, Caco-2 cells, Mab at 9.0E-10 M (human ferroportin 1 [4]) [%]	% Inhibition (human ferroportin 1 [16]) [%]	further results
Mouse IgG1, a negative control (antibody)																			% Inhibition [1]: -3.4%; % Inhibition [2]: -4%; % Inhibition [3]: -11%; % Inhibition of hepcidin-induced ferritin increase in Caco-2 cells, 6.25 µg/mL (human ferroportin 1 [4]): 0%; % Inhibition of hepcidin-induced ferritin increase in Caco-2 cells, 12.5 µg/mL (human ferroportin 1 [4]): 0%; % Inhibition of hepcidin-induced ferritin increase in Caco-2 cells, 25 µg/mL (human ferroportin 1 [4]): 7.2%; % Inhibition of hepcidin-induced ferritin increase in Caco-2 cells, 50 µg/mL (human ferroportin 1 [4]): 0%; % Inhibition of hepcidin-induced ferritin increase in Caco-2 cells, 100 µg/mL (human ferroportin 1 [4]): 3.5%; % Inhibition of hepcidin-induced ferritin increase in Caco-2 cells, 200 µg/mL (human ferroportin 1 [4]): 11.6%; Ferritin (ng)/protein (µg) in hepcidin-treated Caco-2 cells, 6.25 µg/mL (ng ferritin/µg protein) (human ferroportin 1 [4]): 10.4; Ferritin (ng)/protein (µg) in hepcidin-treated Caco-2 cells, 12.5 µg/mL (ng ferritin/µg protein) (human ferroportin 1 [4]): 10; Ferritin (ng)/protein (µg) in hepcidin-treated Caco-2 cells, 25 µg/mL (ng ferritin/µg protein) (human ferroportin 1 [4]): 9.6; Ferritin (ng)/protein (µg) in hepcidin-treated Caco-2 cells, 50 µg/mL (ng ferritin/µg protein) (human ferroportin 1 [4]): 10.1; Ferritin (ng)/protein (µg) in hepcidin-treated Caco-2 cells, 100 µg/mL (ng ferritin/µg protein) (human ferroportin 1 [4]): 9.78; Ferritin (ng)/protein (µg) in hepcidin-treated Caco-2 cells, 200 µg/mL (ng ferritin/µg protein) (human ferroportin 1 [4]): 9.4; % Inhibition [5]: 0.5%
control IgG (antibody)																			% Inhibition (human ferroportin 1 [6]): 7.9%; % Inhibition (human ferroportin 1 [7]): -2.5%; % Inhibition (human ferroportin 1 [8]): -0.7%; % Inhibition (human ferroportin 1 [9]): 1.9%; % Inhibition (human ferroportin 1 [10]): 2.5%
B1	13.4	5.7	4.7	85.9	no binding	59.3	84.9	5.4	37	59.6	36.2	24.9	12	61.9	45.6	28	19.5	95.3	
B2	32.1	3.8	3.7	92.6	no binding	88.4	81.6	18.7	28	69.3	45.3	34.8	14.2	75.2	61.1	31.6	23.3	79.9	
